# Patent US20250277199, “NOVEL CRISPR-CAS NUCLEASES FROM METAGENOMES” (Brain Biotech AG, published 2025)
# T1: BMC12 (uncultured bacterium (metagenome))
# T1 chain: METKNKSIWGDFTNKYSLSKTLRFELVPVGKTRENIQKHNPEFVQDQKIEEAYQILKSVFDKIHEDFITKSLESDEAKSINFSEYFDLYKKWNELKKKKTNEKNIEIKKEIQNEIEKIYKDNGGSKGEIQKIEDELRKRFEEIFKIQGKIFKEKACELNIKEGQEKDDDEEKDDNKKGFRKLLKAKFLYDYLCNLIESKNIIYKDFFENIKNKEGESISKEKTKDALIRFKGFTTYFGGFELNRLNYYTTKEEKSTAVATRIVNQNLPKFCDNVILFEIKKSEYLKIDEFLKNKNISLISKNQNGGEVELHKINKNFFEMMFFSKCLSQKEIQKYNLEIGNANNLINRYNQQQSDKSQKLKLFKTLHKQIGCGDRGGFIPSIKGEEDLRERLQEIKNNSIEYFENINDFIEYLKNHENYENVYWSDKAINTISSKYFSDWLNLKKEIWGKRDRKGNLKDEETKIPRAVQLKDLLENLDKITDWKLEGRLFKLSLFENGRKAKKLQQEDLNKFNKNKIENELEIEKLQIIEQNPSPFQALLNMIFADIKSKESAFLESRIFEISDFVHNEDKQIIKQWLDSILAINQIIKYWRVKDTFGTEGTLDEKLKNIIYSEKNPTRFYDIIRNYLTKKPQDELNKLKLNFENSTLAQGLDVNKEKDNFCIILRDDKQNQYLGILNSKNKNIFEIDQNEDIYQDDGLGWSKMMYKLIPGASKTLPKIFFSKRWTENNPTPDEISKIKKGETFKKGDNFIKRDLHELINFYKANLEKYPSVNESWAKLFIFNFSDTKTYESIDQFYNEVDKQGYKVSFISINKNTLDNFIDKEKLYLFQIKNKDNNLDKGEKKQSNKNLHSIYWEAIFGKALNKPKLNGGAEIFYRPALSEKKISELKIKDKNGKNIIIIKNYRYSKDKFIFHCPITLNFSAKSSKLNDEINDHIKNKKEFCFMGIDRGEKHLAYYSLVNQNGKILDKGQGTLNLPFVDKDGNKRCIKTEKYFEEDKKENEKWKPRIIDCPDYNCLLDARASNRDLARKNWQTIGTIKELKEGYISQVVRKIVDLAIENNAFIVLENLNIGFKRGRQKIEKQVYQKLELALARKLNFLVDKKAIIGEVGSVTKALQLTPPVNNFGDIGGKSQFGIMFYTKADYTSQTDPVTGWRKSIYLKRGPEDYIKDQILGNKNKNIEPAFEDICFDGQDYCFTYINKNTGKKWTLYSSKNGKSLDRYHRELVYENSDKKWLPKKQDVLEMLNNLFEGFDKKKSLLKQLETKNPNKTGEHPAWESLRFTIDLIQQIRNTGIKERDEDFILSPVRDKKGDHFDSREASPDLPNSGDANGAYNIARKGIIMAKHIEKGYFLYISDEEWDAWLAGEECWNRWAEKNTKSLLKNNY
# B1: malQ gRNA (BMC stem-loop + 24 nt spacer) ; malQ protospacer (ssRNA ; dsDNA)
# RNA: GAUUUCUACUAUUGUAGAUGUGGCGGUACGUUGAUGCAUCGCG
# DNA 1: GTGGCGGTACGTTGATGCATCGCG
# DNA 2: CGCGATGCATCAACGTACCGCCAC
# Target: T1, BMC12
# Test: cell_activity; PAM not stated; E. coli depletion, 30 C
# Outline: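 E. coli carrying arabinose-induced (0.2%) BMC nuclease, grown at 30° C., made electrocompetent and electroporated with 50-100 ng plasmid carrying gRNA against malQ. Transformants plated on selective M9-glucose agar with kanamycin/ampicillin (± nourseothricin), and growth scored after 48 h at 30° C.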
binder,measurement,value
B1,activity,> 99.9 % colony reduction
